Legend:
Assay in all cases: co-IP
[1] = target: pro-ALP (yeast vacuolar alkaline phosphatase, pro-form) (S. cerevisiae) (UniProt P11491)
[2] = target: Δ79-82ALP (dimerization mutant of pro-ALP) (S. cerevisiae) (UniProt P11491)
co-IP = target: the molecule itself

Row | percent of total Erv26p recovered in the IP [1] [%] | percent of total Erv26p recovered in the IP [2] [%] | Molecule | ratio of untagged to HA-tagged pro-ALP immunoprecipitated (co-IP)
1 | 2.5 | 1 | Erv26p (receptor) | –
2 | – | – | pro-ALP (yeast vacuolar alkaline phosphatase, pro-form) (natural protein, S. cerevisiae, UniProt P11491 1-566, looked up) MMTHTLPSEQTRLVPGSDSSSRPKKRRISKRSKIIVSTVVCIGLLLVLVQLAFPSSFALRSASHKKKNVIFFVTDGMGPASLSMARSFNQHVNDLPIDDILTLDEHFIGSSRTRSSDSLVTDSAAGATAFACALKSYNGAIGVDPHHRPCGTVLEAAKLAGYLTGLVVTTRITDATPASFSSHVDYRWQEDLIATHQLGEYPLGRVVDLLMGGGRSHFYPQGEKASPYGHHGARKDGRDLIDEAQSNGWQYVGDRKNFDSLLKSHGENVTLPFLGLFADNDIPFEIDRDEKEYPSLKEQVKVALGALEKASNEDKDSNGFFLMVEGSRIDHAGHQNDPASQVREVLAFDEAFQYVLEFAENSDTETVLVSTSDHETGGLVTSRQVTASYPQYVWYPQVLANATHSGEFLKRKLVDFVHEHKGASSKIENFIKHEILEKDLGIYDYTDSDLETLIHLDDNANAIQDKLNDMVSFRAQIGWTTHGHSAVDVNIYAYANKKATWSYVLNNLQGNHENTEVGQFLENFLELNLNEVTDLIRDTKHTSDFDATEIASEVQHYDEYYHELTN | 0.38
3 | – | – | Δ79-82ALP (dimerization mutant of pro-ALP) (natural protein, S. cerevisiae, UniProt P11491 1-566, looked up) MMTHTLPSEQTRLVPGSDSSSRPKKRRISKRSKIIVSTVVCIGLLLVLVQLAFPSSFALRSASHKKKNVIFFVTDGMGSMARSFNQHVNDLPIDDILTLDEHFIGSSRTRSSDSLVTDSAAGATAFACALKSYNGAIGVDPHHRPCGTVLEAAKLAGYLTGLVVTTRITDATPASFSSHVDYRWQEDLIATHQLGEYPLGRVVDLLMGGGRSHFYPQGEKASPYGHHGARKDGRDLIDEAQSNGWQYVGDRKNFDSLLKSHGENVTLPFLGLFADNDIPFEIDRDEKEYPSLKEQVKVALGALEKASNEDKDSNGFFLMVEGSRIDHAGHQNDPASQVREVLAFDEAFQYVLEFAENSDTETVLVSTSDHETGGLVTSRQVTASYPQYVWYPQVLANATHSGEFLKRKLVDFVHEHKGASSKIENFIKHEILEKDLGIYDYTDSDLETLIHLDDNANAIQDKLNDMVSFRAQIGWTTHGHSAVDVNIYAYANKKATWSYVLNNLQGNHENTEVGQFLENFLELNLNEVTDLIRDTKHTSDFDATEIASEVQHYDEYYHELTN | 0.05

Source: PMC2957810 (Traffic (Copenhagen, Denmark), 2009)
